Bridges are numbered along the chain shown (N, C = ends). [ ]: non-standard residue; d: D form.

Common to all, as to experiment: cell-based or functional assay
Experiment [1] deals with T1, CathepsinG, from human neutrophils (human, UniProt P08311 21-244).
T1 sequence (looked up): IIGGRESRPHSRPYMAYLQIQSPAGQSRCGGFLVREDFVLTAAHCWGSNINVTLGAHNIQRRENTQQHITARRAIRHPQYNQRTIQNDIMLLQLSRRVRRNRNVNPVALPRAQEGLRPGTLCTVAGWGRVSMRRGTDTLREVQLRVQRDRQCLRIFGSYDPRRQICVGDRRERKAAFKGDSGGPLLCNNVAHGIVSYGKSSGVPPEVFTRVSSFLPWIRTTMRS

Experiment [2] has as its target T2, Elastase from human neutrophils (human, UniProt P08246 30-247, limits assumed).
T2 sequence (looked up): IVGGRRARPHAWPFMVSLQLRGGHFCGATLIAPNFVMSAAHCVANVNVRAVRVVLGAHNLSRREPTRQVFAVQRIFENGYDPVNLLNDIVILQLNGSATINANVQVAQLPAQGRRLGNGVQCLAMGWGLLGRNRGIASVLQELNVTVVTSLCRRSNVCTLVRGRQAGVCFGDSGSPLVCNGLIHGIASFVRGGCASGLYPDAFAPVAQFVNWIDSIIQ

The target in experiment [3] is Trypsin, Iodination grade, from human pancreas (human, UniProt P07477 24-247).
Experiment [4] addresses Chymotrypsin, from human pancreas (human, UniProt P17538 19-263).
The target in the next experiment is T3, Chymase, from human skin (human, UniProt P23946 22-247).
T3 sequence (looked up): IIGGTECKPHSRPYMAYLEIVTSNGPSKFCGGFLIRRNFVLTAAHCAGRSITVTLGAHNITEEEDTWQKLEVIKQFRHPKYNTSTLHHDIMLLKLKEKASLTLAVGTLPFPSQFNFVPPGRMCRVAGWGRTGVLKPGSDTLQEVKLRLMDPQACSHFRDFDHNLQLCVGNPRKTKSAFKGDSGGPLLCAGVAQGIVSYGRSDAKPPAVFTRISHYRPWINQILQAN

In experiment [5] the target is Thrombin, from Human Plasma, high activity (human, UniProt P00734 328-622).
The target in experiment [6] is Coagulation Factor Xa, from human plasma (human, UniProt P00742 41-488, limits assumed).
Sequence of Coagulation Factor Xa, from human plasma (P00742 41-488 limits assumed): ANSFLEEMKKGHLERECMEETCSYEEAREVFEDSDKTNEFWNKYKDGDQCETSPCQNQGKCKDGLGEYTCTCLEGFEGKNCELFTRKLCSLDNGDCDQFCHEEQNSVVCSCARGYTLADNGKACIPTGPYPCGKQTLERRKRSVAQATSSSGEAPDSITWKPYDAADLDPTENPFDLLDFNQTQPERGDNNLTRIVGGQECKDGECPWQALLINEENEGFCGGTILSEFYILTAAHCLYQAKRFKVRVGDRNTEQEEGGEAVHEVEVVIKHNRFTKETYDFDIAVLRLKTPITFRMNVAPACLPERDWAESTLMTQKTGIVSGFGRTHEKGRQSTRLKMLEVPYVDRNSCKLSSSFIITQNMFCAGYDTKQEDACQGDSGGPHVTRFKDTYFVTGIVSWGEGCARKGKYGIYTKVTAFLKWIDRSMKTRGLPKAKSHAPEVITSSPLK
Experiment [7] addresses Urokinase from human urine (human, UniProt P00749 21-431, limits assumed).
In experiment [8] the target is Tryptase, from human lung (human, UniProt Q15661 31-275, limits assumed).
Sequence of Tryptase, from human lung (Q15661 31-275 limits assumed): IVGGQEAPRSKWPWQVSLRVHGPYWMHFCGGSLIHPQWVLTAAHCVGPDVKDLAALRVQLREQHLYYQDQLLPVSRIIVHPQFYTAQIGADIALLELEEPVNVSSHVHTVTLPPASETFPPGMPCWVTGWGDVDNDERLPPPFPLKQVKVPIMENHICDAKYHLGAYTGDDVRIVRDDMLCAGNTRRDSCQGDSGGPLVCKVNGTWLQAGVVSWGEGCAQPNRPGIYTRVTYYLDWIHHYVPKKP

Sequence of Chymotrypsin, from human pancreas (P17538 19-263): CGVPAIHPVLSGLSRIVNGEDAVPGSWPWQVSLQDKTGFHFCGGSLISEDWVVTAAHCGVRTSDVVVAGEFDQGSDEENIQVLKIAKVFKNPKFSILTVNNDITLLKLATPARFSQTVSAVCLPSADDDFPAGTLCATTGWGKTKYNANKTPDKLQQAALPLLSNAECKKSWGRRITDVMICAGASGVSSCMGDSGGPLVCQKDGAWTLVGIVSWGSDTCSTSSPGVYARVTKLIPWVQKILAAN

B1: Example 57 (peptide)
peptide: ICTKSDPPXCR
HELM: PEPTIDE1{I.C.T.K.S.D.P.P.[Nle].C.R.[dP].P}$PEPTIDE1,PEPTIDE1,2:R3-10:R3|PEPTIDE1,PEPTIDE1,1:R1-13:R2$$$V2.0
SMILES: CCCC[C@@H]1NC(=O)[C@@H]2CCCN2C(=O)[C@@H]2CCCN2C(=O)[C@H](CC(=O)O)NC(=O)[C@H](CO)NC(=O)[C@H](CCCCN)NC(=O)[C@H]([C@@H](C)O)NC(=O)[C@@H]2CSSC[C@H](NC1=O)C(=O)N[C@@H](CCCNC(=N)N)C(=O)N1CCC[C@@H]1C(=O)N1CCC[C@H]1C(=O)N[C@@H]([C@@H](C)CC)C(=O)N2
As to B1, the IC50 in [1] is 41 nmol; in [2], > 100000 nmol. Also, the “% inhibition at 100 µM” value in experiment [3] came out at 94%; in experiment [4], 0%; in the experiment with Chymase, from human skin, 26.9%; in experiment [5] it was 11%; in [6], 32%; in experiment [7] it was 4%.

B2: Example 14 (peptide)
peptide: cyclo(ICTKSDPAICR[dP]P)
modifications: disulfide 2-10
B2: the IC50 in experiment [1] was 52 nmol; in experiment [2], > 100000 nmol. Further, the “% inhibition at 100 µM” value in experiment [4] stood at 0%; in the experiment with Chymase, from human skin, 42.3%; in experiment [5] it was 8.7%; in experiment [6], 6%; in [7], 5.4%; in experiment [8], 84.2%.

B3: Example 84 (peptide)
peptide: XCTASXPPQCY
HELM: PEPTIDE1{[Nle].C.T.A.S.[O=C([C@@H](N[*:1])C1CCCCC1)[*:2]].P.P.Q.C.Y.[dP].P}$PEPTIDE1,PEPTIDE1,2:R3-10:R3|PEPTIDE1,PEPTIDE1,1:R1-13:R2$$$V2.0
SMILES: CCCC[C@@H]1NC(=O)[C@@H]2CCCN2C(=O)[C@H]2CCCN2C(=O)[C@H](Cc2ccc(O)cc2)NC(=O)[C@@H]2CSSC[C@H](NC1=O)C(=O)N[C@@H]([C@@H](C)O)C(=O)N[C@@H](C)C(=O)N[C@@H](CO)C(=O)N[C@@H](C1CCCCC1)C(=O)N1CCC[C@H]1C(=O)N1CCC[C@H]1C(=O)N[C@@H](CCC(N)=O)C(=O)N2
B3: the IC50 in experiment [1] amounted to 20200 nmol; in experiment [2] it was 18 nmol. The “% inhibition at 100 µM” value in experiment [3] amounted to 10.8%; with Chymase, from human skin it was 0%; in [5], 20.6%; in [6], 13.3%; in experiment [7], 10.4%; in experiment [8], 4.2%.

B4: Example 60 (peptide)
peptide: FCTXSDPPICY
HELM: PEPTIDE1{F.C.T.[Nle].S.D.P.P.I.C.Y.[dP].P}$PEPTIDE1,PEPTIDE1,2:R3-10:R3|PEPTIDE1,PEPTIDE1,1:R1-13:R2$$$V2.0
SMILES: CCCC[C@@H]1NC(=O)[C@H]([C@@H](C)O)NC(=O)[C@@H]2CSSC[C@H](NC(=O)[C@H]([C@@H](C)CC)NC(=O)[C@@H]3CCCN3C(=O)[C@@H]3CCCN3C(=O)[C@H](CC(=O)O)NC(=O)[C@H](CO)NC1=O)C(=O)N[C@@H](Cc1ccc(O)cc1)C(=O)N1CCC[C@@H]1C(=O)N1CCC[C@H]1C(=O)N[C@@H](Cc1ccccc1)C(=O)N2
Turning to B4, the IC50 is 38 nmol in experiment [1] and > 100000 nmol in experiment [2]. Also, the “% inhibition at 100 µM” value in experiment [3] was found to be 90%; in [4] it was 4%; in the experiment with Chymase, from human skin it was 60%; in experiment [5], 0%; in experiment [6] it was 11%; in [7], 9%.

B5: Example 1 (peptide)
peptide: FCTKSEPPICT
HELM: PEPTIDE1{F.C.T.K.S.E.P.P.I.C.T.[dP].P}$PEPTIDE1,PEPTIDE1,2:R3-10:R3|PEPTIDE1,PEPTIDE1,1:R1-13:R2$$$V2.0
SMILES: CC[C@H](C)[C@@H]1NC(=O)[C@@H]2CCCN2C(=O)[C@@H]2CCCN2C(=O)[C@H](CCC(=O)O)NC(=O)[C@H](CO)NC(=O)[C@H](CCCCN)NC(=O)[C@H]([C@@H](C)O)NC(=O)[C@@H]2CSSC[C@H](NC1=O)C(=O)N[C@@H]([C@@H](C)O)C(=O)N1CCC[C@@H]1C(=O)N1CCC[C@H]1C(=O)N[C@@H](Cc1ccccc1)C(=O)N2
Take B5: the IC50 in experiment [1] is 86 nmol; in [2], > 100000 nmol. Also, the “% inhibition at 100 µM” value in experiment [3] was found to be 92.6%; in experiment [4], 7.8%; in the experiment with Chymase, from human skin, 0%; in experiment [5], 1.1%; in experiment [6], 5.7%; in [7], 5.7%. Besides, in experiment [8], the “% inhibition at 100 µM” value stood at 0%.

B6: Example 58 (peptide)
peptide: ICTKSDPPXCR
HELM: PEPTIDE1{I.C.T.K.S.D.P.P.[Cha].C.R.[dP].P}$PEPTIDE1,PEPTIDE1,2:R3-10:R3|PEPTIDE1,PEPTIDE1,1:R1-13:R2$$$V2.0
SMILES: CC[C@H](C)[C@@H]1NC(=O)[C@@H]2CCCN2C(=O)[C@H]2CCCN2C(=O)[C@H](CCCNC(=N)N)NC(=O)[C@@H]2CSSC[C@H](NC1=O)C(=O)N[C@@H]([C@@H](C)O)C(=O)N[C@@H](CCCCN)C(=O)N[C@@H](CO)C(=O)N[C@@H](CC(=O)O)C(=O)N1CCC[C@H]1C(=O)N1CCC[C@H]1C(=O)N[C@@H](CC1CCCCC1)C(=O)N2
Consider B6, for which the IC50 is 47.5 nmol in [1] and > 100000 nmol in experiment [2]. Also, the “% inhibition at 100 µM” value amounted to 97% in [3]; 0% in [4]; 44.1% with Chymase, from human skin; 28% in [5]; 25% in experiment [6]; 6.7% in experiment [7].

B7: Example 52 (peptide)
peptide: cyclo(ICTKSDPAICR[dP]P)
modifications: disulfide 2-10
B7: the IC50 in experiment [1] is 52 nmol; in experiment [2], > 100000 nmol. Also, the “% inhibition at 100 µM” value in [4] was 0%; with Chymase, from human skin, 42.3%; in experiment [5], 8.7%; in experiment [6] it was 6%; in experiment [7] it was 5.4%; in [8], 84.2%.

B8: Example 82 (peptide)
peptide: XCTASXPPQCY
HELM: PEPTIDE1{[Nle].C.T.A.S.[Cha].P.P.Q.C.Y.[dP].P}$PEPTIDE1,PEPTIDE1,2:R3-10:R3|PEPTIDE1,PEPTIDE1,1:R1-13:R2$$$V2.0
SMILES: CCCC[C@@H]1NC(=O)[C@@H]2CCCN2C(=O)[C@H]2CCCN2C(=O)[C@H](Cc2ccc(O)cc2)NC(=O)[C@@H]2CSSC[C@H](NC1=O)C(=O)N[C@@H]([C@@H](C)O)C(=O)N[C@@H](C)C(=O)N[C@@H](CO)C(=O)N[C@@H](CC1CCCCC1)C(=O)N1CCC[C@H]1C(=O)N1CCC[C@H]1C(=O)N[C@@H](CCC(N)=O)C(=O)N2
As to B8, the IC50 in experiment [2] was determined as 18 nmol. In addition, the “% inhibition at 100 µM” value in [4] came out at 72.9%; in [6], 15.3%; in experiment [8], 44.5%.

In general, % inhibition refers to how much of the control response was suppressed. High values mean a response far below the control, low ones a response near the control.

For the origin of these results see patent US20140213531A1 (POLYPHOR, published 2014).
